Experimental data reported in publication PMC3388541.

How the values were obtained:
Details in all cases: remark: other sources report otherwise
[1] = molecular target: T1, ScHSP26 (Saccharomyces cerevisiae), P15992; experiment: native MS
T1 chain: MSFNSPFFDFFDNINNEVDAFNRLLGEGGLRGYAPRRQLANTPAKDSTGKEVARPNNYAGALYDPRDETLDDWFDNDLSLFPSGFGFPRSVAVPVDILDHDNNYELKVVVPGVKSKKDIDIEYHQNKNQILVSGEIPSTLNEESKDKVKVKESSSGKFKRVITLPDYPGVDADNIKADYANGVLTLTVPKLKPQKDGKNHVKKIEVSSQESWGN

[2] = molecular target: T1, ScHSP26 (Saccharomyces cerevisiae), …; experiment: native MS
[3] = molecular target: T1, ScHSP26 (Saccharomyces cerevisiae), …; experiment: native MS
[4] = molecular target: T1, ScHSP26 (Saccharomyces cerevisiae), …; experiment: SEC-MALS
[5] = molecular target: T1, ScHSP26 (Saccharomyces cerevisiae), …; experiment: native MS
[6] = molecular target: T1, ScHSP26 (Saccharomyces cerevisiae), …; experiment: native MS
[7] = molecular target: T1, ScHSP26 (Saccharomyces cerevisiae), …; experiment: native MS
[8] = molecular target: T1, ScHSP26 (Saccharomyces cerevisiae), …; experiment: native MS

B1: ScHSP26, P15992 1-214 (natural protein)
chain: T1 chain
[1]
  stoichiometry N: 2 subunits
[2]
  stoichiometry N: 2 subunits
[3]
  stoichiometry N: 40 subunits
[4]
  stoichiometry N: 34 subunits
[5]
  stoichiometry N: 32 to 42 subunits
[6]
  stoichiometry N: 2 subunits
[7]
  stoichiometry N: 40 subunits
[8]
  stoichiometry N: 24 to 42 subunits
